T1: IL-10 receptor (IL-10R), mouse (mouse (endogenous in BMDMs and splenocytes)) (UniProt Q61727)
T1 sequence: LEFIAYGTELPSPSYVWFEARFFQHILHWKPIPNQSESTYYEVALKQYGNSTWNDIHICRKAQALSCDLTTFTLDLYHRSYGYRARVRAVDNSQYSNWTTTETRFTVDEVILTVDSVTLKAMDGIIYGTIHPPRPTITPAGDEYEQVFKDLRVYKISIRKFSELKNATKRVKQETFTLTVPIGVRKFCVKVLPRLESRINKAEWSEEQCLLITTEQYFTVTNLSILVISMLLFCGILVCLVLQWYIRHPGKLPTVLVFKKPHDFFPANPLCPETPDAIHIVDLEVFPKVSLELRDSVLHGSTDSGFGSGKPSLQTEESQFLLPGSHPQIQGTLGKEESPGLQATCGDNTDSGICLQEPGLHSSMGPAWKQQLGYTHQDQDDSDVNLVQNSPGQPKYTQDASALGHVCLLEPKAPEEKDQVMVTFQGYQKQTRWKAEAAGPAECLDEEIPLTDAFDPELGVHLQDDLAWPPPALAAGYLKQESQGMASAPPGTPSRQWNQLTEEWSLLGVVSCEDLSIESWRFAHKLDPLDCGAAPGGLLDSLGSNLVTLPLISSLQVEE


Columns and labels:
[1] = target: T1, IL-10 receptor (IL-10R), mouse (mouse (endogenous in BMDMs and splenocytes))
[2] = target: T1, IL-10 receptor (IL-10R), mouse (mouse (endogenous in BMDMs and splenocytes)); remark: listed apart in the source
[3] = target: T1, IL-10 receptor (IL-10R), mouse (mouse (endogenous in BMDMs and splenocytes)); remark: listed apart in the source
[4] = target: T1, IL-10 receptor (IL-10R), mouse (mouse (endogenous in BMDMs and splenocytes)); remark: listed apart in the source

Molecule | ED50 of biological activity, dose-response, data as AUC (Figure 5B) [1] | ED50, suppression of LPS-induced luciferase in BMDMs (Figure 2H) [2] | suppression of LPS-induced luciferase in hTNF.LucBAC BMDMs, 10 ng/mL [3] | other results
natural mouse IL-10 with RRCHR changed to RACHR (from UniProt P18893 19-178) (ligand) | 0.28 ng/mL |  |  | 
natural mouse IL-10 with RRCHR changed to AACHR (from UniProt P18893 19-178) (ligand) | 0.96 ng/mL |  |  | 
stable mouse IL-10 dimer, 9 amino acid linker (-G3SG4S-) (ligand) |  | 0.4 ng/mL |  | 
stable mouse IL-10 dimer, 7 amino acid linker (-G3SG3-) (ligand) |  | 0.45 ng/mL | 60% | ED50, half-maximal suppression of LPS-induced luciferase in hTNF.LucBAC BMDMs (Figure 2C) [3]: 0.04 ng/mL; ED50 of biological activity, dose-response, data as AUC (Figure 5D) [1]: 0.36 ng/mL
natural human IL-10 (non-covalently linked) (from UniProt P22301 19-178) (ligand) |  |  |  | ED50, suppression of LPS-induced luciferase in mouse BMDMs (Figure 8A) [4]: 0.87 ng/mL
stable mouse IL-10 dimer, 13 amino acid linker (-G3SG4-SG4-) (ligand) |  | 0.38 ng/mL |  | 
commercial mouse IL-10 (ligand) SRGQYSREDNNCTHFPVGQSHMLLELRTAFSQVKTFFQTKDQLDNILLTDSLMQDFKGYLGCQALSEMIQFYLVEVMPQAEKHGPEIKEHLNSLGEKLKTLRMRLRRCHRFLPCENKSKAVEQVKSDFNKLQDQGVYKAMNEFDIFINCIEAYMMIKMKS |  |  | 60% | 

More lines, main results first:

ED50 of biological activity, dose-response, data as AUC (Figure 5B) [1] | ED50, suppression of LPS-induced luciferase in BMDMs (Figure 2H) [2] | suppression of LPS-induced luciferase in hTNF.LucBAC BMDMs, 10 ng/mL [3] | Molecule | other results
59.3 ng/mL |  |  | natural mouse IL-10 with RRCHR changed to ARCHA (from UniProt P18893 19-178) (ligand) | 
0.1 ng/mL | 1.5 ng/mL | 60% | natural mouse IL-10 (non-covalently linked) (ligand) SRGQYSREDNNCTHFPVGQSHMLLELRTAFSQVKTFFQTKDQLDNILLTDSLMQDFKGYLGCQALSEMIQFYLVEVMPQAEKHGPEIKEHLNSLGEKLKTLRMRLRRCHRFLPCENKSKAVEQVKSDFNKLQDQGVYKAMNEFDIFINCIEAYMMIKMKS | ED50, half-maximal suppression of LPS-induced luciferase in hTNF.LucBAC BMDMs (Figure 2C) [3]: 0.17 ng/mL

From publication PMC7431522
